According to paper PMC3298681 (Molecular Cell, 2011):

Molecular target: the molecule itself

B1: DgcB (CC1850), purified (enzyme, Caulobacter crescentus, UniProt Q9A776 1-353, looked up)
chain: MSDVETTLRGPEAYKIASRALELMERHQVWPTALNFELWTHYVADPNGALARELTRLISLGEPMTELVSEELAATFLPKARLNEQIRDAGDILSKELEAVSKAIQNAQKSNAAFGQELAGASKSLDTHTDVASIKAVVGSIAEATRRVHKENQSLEARLADSTAEVERLREHLEQVRRDATTDGLTNLANRKAFDDELDRACAEAEEGGTTICLAVLDIDHFKGFNDTWGHQTGDQVIRYVASVIGRVAAPPRFAARYGGEEFAMIFPREAASVVATTLEEIRVEVSSRMLKRRSTNEDLGAITVSSGFAERKPGESGHSVMERADAALYASKRGGRNRVTAAESMPGAANAA
  stoichiometry N: 2
